In assay [1] the target is T1, human IL-2Rβγc (on DERL-7 cells, U2OS IL2RB/IL2RG cells, CD25 knockout Kit225-STAT5 cells, primary CD8+ CTLs) (human, UniProt P14784 27-551; P31785 23-369).
T1 sequence (looked up) 1: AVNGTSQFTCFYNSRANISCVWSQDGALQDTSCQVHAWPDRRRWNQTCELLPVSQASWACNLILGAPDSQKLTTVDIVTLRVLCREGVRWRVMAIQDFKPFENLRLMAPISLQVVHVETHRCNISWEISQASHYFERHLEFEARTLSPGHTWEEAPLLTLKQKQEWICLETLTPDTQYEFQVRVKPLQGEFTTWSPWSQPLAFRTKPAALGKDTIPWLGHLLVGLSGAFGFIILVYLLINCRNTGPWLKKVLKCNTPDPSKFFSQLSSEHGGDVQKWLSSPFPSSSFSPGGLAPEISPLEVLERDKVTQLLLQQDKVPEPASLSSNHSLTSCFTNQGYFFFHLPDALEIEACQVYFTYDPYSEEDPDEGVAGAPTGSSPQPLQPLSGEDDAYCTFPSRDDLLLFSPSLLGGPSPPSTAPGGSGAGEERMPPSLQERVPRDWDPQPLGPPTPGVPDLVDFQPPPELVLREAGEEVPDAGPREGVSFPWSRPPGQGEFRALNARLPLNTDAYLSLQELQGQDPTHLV
T1 sequence (looked up) 2: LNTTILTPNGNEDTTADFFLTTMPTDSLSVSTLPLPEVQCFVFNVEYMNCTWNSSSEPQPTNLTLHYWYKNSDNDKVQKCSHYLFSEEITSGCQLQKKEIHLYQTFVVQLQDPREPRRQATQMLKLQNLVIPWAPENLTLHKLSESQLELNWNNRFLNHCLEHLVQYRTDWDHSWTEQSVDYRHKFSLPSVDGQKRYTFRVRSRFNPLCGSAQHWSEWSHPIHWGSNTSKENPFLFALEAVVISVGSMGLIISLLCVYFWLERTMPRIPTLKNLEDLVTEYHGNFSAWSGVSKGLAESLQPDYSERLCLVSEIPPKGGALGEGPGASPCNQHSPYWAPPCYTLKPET
The assay can be described thus: cell-based or functional assay.

For assay [2], the target named is T2, mouse IL-2Rαβγc (on CTLL2-STAT5 reporter cells) (mouse, UniProt P01590 22-268; P16297 27-539; P34902 23-369).
T2 sequence (looked up) 1: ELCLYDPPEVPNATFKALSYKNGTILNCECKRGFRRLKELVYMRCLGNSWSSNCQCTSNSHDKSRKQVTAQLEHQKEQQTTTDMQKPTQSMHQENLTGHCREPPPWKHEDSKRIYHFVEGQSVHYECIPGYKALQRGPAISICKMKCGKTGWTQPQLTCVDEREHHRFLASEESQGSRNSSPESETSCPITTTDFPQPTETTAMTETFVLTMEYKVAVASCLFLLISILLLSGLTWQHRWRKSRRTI
T2 sequence (looked up) 2: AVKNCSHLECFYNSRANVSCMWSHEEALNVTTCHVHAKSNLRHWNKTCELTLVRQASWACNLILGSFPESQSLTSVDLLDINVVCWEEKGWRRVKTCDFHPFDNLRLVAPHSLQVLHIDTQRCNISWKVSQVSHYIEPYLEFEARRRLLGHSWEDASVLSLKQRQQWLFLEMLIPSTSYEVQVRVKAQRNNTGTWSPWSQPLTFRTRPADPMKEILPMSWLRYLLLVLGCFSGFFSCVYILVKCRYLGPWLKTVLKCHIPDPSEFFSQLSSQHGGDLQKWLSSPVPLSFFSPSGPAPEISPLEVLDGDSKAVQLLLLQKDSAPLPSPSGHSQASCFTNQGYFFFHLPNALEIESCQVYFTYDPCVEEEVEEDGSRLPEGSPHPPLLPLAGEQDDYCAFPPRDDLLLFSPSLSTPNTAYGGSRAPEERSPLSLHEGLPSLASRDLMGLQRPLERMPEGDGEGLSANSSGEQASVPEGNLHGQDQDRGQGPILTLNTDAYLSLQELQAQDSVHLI
T2 sequence (looked up) 3: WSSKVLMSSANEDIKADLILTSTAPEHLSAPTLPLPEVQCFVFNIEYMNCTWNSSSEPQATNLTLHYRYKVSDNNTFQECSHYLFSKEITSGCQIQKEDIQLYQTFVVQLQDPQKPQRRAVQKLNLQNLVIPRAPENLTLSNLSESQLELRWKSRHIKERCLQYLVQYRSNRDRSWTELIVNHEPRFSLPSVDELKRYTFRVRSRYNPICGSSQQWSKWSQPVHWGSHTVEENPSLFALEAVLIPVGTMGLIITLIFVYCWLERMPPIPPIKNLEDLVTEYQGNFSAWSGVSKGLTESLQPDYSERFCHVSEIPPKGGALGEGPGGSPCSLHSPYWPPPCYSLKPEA
The assay can be described thus: cell-based or functional assay.

In a further assay the target is T3, Biotin-IL-2Rβ-His (UniProt P14784 27-239, limits assumed, biotin-labeled (site not stated)).
T3 construct: also called biotin-labeled IL-2Rβ; not shown: His tag
T3 sequence (looked up): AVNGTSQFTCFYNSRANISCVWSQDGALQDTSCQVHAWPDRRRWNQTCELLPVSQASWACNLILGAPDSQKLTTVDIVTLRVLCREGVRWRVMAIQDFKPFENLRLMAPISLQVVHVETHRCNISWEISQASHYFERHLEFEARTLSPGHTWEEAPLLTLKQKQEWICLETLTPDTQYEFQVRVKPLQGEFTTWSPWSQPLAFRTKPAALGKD
The assay can be described thus: SPR (Biacore T200). In general terms: Surface plasmon resonance follows binding to a sensor surface in real time, without labels.

Another assay concerns the target T4, Biotin-IL-2Rα-His (UniProt P01589 22-213, limits assumed, biotin-labeled (site not stated)).
T4 construct: also called biotin-labeled IL-2Rα; not shown: His tag
T4 sequence (looked up): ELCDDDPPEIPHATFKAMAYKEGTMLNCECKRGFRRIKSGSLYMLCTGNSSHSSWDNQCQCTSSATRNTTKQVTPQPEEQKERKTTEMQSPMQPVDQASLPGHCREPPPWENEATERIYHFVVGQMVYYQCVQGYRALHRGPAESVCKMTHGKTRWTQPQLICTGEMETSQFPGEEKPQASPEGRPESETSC
The experiment in a line: SPR (Biacore T200).

Assay [3] has as its target T2, mouse IL-2Rαβγc (on CTLL2-STAT5 …). The assay can be described thus: cell-based or functional assay. The source holds these as a separate data set.
In assay [4] the target is T5, human IL-2Rαβγc (on Kit225-STAT5 reporter cells, NK-92 cells, primary Treg cells) (human, UniProt P01589 22-272; P14784 27-551; P31785 23-369).
T5 sequence (looked up) 1: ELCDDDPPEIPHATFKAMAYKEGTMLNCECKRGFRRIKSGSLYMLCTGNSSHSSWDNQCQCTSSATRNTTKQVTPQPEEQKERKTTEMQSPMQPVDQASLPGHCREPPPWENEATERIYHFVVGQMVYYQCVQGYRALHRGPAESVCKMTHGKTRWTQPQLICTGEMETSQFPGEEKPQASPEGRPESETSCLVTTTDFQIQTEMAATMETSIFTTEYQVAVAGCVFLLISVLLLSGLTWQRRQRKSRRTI
T5 sequence (looked up) 2: T1 sequence (looked up) 1
T5 sequence (looked up) 3: T1 sequence (looked up) 2
The assay can be described thus: cell-based or functional assay.

The target of assay [5] is T1, human IL-2Rβγc (on DERL-7 cells, U2OS …). The assay can be described thus: cell-based or functional assay. This is another data set of the same source.
For assay [6] the target is unchanged. The experiment in a line: cell-based or functional assay. The source holds these as a separate data set.
In another assay the target is T6, Human IL-2Rβ (Table 7B) (human, UniProt P14784 27-239, limits assumed).
T6 sequence (looked up): T3 sequence (looked up)
The assay can be described thus: SPR (Biacore T200).

Assay [7] addresses T5, human IL-2Rαβγc (on Kit225-STAT5 …). The experiment in a line: cell-based or functional assay. The source holds these as a separate data set.

Numbering of substitutions follows the chain as printed. In names and notes the source's numbering stands. *1 amine or outer side, *2 acyl side, *3 side chain or, on linkers, in order; H or OH if unused. [ ]: non-standard residue; d: D form. pAMF = para-azidomethylphenylalanine, [N-]=[N+]=NCc1ccc(C[C@H](N[*:1])C(=O)[*:2])cc1 Where only a bound is given, the exact number is not on record here.

From patent US20210340207A1 (Merck Sharp & Dohme, published 2021) come the findings set out here.

B1: Ald-6HIS_E60T/E61S (ligand)
chain: PTSSSTKKTQLQLEHLLLDLQMILNGINNYKNPKLTRMLTFKFYMPKKATELKHLQCLETSLKPLEEVLNLAQSKNFHLRPRDLISNINVIVLELKGSETTFMCEYADETATIVEFLNRWITFSQSIISTLTGGSHHHHHH
Turning to B1, the “U2OS-IL2Rbg EC50” value in assay [1] was found to be 1.95 nM. Moreover, the “CTLL2-STAT5 EC50” value in assay [2] was 0.525 nM. In the assay with Biotin-IL-2Rβ-His, the Kd (usually a measure of binding affinity in units of concentration) came to 2000 nM and the “fold reduction over wt” value was determined as 5 fold. In the assay with Biotin-IL-2Rα-His, the Kd amounted to 800 nM and the “fold reduction over wt” value turned out to be 80 fold.

B2: Ald-6HIS_E61S/P64A (ligand)
chain: B1 chain with T60E, P64A
For B2, the “U2OS-IL2Rbg EC50” value in [1] came to 0.634 nM. In addition, in assay [2], the “CTLL2-STAT5 EC50” value stood at 0.213 nM. Moreover, in the assay with Biotin-IL-2Rβ-His, the affinity, expressed as Kd, was 500 nM and the “fold reduction over wt” value turned out to be 1 fold. Besides, in the assay with Biotin-IL-2Rα-His, binding was put at a Kd of 500 nM and the “fold reduction over wt” value was 50 fold.

B3: Ald-6HIS_T40D/F41K (ligand)
chain: B1 chain with T40D, F41K, T60E, S61E
B3: in [3], the “STAT5-CTLL2 EC50” value amounted to 6.31 nM and the “STAT5-CTLL2 EC50 Fold Change” value is 699 fold. In addition, in assay [4], the “NK-92 EC50 Fold Change” value was 2.81 fold and the “NK-92 cell assay EC50” value amounted to 0.02 nM. Further, in assay [5], the “U2OS B/BG EC50 Fold Change” value was determined as 1.84 fold and the “U2OS B/BG bridging cell assay EC50” value turned out to be 0.294 nM. Further, in [6], the “DERL7 EC50 Fold Change” value turned out to be 0.65 fold and the “DERL7 cell assay EC50” value is 0.012 nM. Also, in the assay with Human IL-2Rβ (Table 7B), the Kd was 980 nM; the koff – broadly, a measure of how fast the partners let go of each other – turned out to be 0.32 s⁻¹; the on-rate (kon) (commonly a measure of how fast the partners come together) was determined as 330000 M⁻¹ s⁻¹.

B4: Ald-6HIS_E60T/E61S/P64A (ligand)
chain: B1 chain with P64A
With B4, the “U2OS-IL2Rbg EC50” value in assay [1] amounted to 1.96 nM. Moreover, the “CTLL2-STAT5 EC50” value in [2] stood at 1.09 nM. Moreover, in the assay with Biotin-IL-2Rβ-His, binding was put at a Kd of 1000 nM and the “fold reduction over wt” value worked out at 3 fold. In addition, in the assay with Biotin-IL-2Rα-His, binding was put at a Kd of 2000 nM and the “fold reduction over wt” value is 200 fold.

B5: Ald-6HIS_E61S/Y106A (ligand)
chain: B1 chain with T60E, Y106A
Regarding B5, in assay [1], the “U2OS-IL2Rbg EC50” value was found to be 2.87 nM. Also, in assay [2], the “CTLL2-STAT5 EC50” value is greater than 7 nM. For the same molecule, in the assay with Biotin-IL-2Rβ-His, the Kd was determined as 2000 nM and the “fold reduction over wt” value is 5 fold.

B6: Ald-6HIS_E60T/P64A (ligand)
chain: B1 chain with S61E, P64A
Consider B6, for which the “U2OS-IL2Rbg EC50” value in [1] came to 0.499 nM. Besides, the “CTLL2-STAT5 EC50” value in assay [2] amounted to 0.024 nM. The Kd in the assay with Biotin-IL-2Rβ-His amounted to 700 nM; with Biotin-IL-2Rα-His it was 60 nM. Also, the “fold reduction over wt” value in the assay with Biotin-IL-2Rβ-His was found to be 2 fold; with Biotin-IL-2Rα-His it was 6 fold.

B7: Ald-6HIS_T40D/F41K/E60T (ligand)
chain: B1 chain with T40D, F41K, S61E
In the case of B7, in assay [3], the “STAT5-CTLL2 EC50” value came out at 98.5 nM and the “STAT5-CTLL2 EC50 Fold Change” value is 10900 fold. In addition, in assay [4], the “NK-92 EC50 Fold Change” value amounted to 9.09 fold and the “NK-92 cell assay EC50” value was determined as 0.063 nM. In assay [5], the “U2OS B/BG EC50 Fold Change” value is 3.15 fold and the “U2OS B/BG bridging cell assay EC50” value was 0.503 nM. Further, in assay [6], the “DERL7 EC50 Fold Change” value was found to be 1.4 fold and the “DERL7 cell assay EC50” value came out at 0.025 nM. Further, in the assay with Human IL-2Rβ (Table 7B), the Kd was determined as 1000 nM, the koff was determined as 0.36 s⁻¹ and the kon is 350000 M⁻¹ s⁻¹.

B8: Ald-6HIS_E61S/P64A/Y106A (ligand)
chain: B1 chain with T60E, P64A, Y106A
With B8, the “U2OS-IL2Rbg EC50” value in assay [1] turned out to be 5.77 nM. In addition, the “CTLL2-STAT5 EC50” value in assay [2] was greater than 7 nM.

B9: Ald_S4pAMF/R37A/F41K (MUT1) (ligand)
chain: PTS[pAMF]STKKTQLQLEHLLLDLQMILNGINNYKNPKLTAMLTKKFYMPKKATELKHLQCLEEELKPLEEVLNLAQSKNFHLRPRDLISNINVIVLELKGSETTFMCEYADETATIVEFLNRWITFSQSIISTLT
modifications: ends and bridges not checked
Regarding B9, in assay [7], the “Kit225-STAT5 reporter, fold lower activity than aldesleukin” value was found to be 190 fold.
